Source: article PMC11889601, “The structural integrity of human TFF1 under reducing conditions” (Redox Biology, 2025)
Ends that are not written are not given here.

Tests used:
[1] = test system: gastrointestinal proteases; settings: ref [17]-[21]; cited from earlier work
Description: (§1) Many secretory proteins contain disulfide bonds, with most formed during folding in the endoplasmic reticulum. The trefoil factor family (TFF) is a highly relevant example of such secretory peptides in humans, with three characteristic peptides (TFF1, TFF2, TFF3) produced by mucous epithelia. They are most abundantly secreted throughout different compartments of the gastrointestinal tract, where they have important functions in protecting the epithelium barrier and maintaining mucosal epithelial homeostasis. Each member of the family has at least one highly conserved TF ...

[2] = monomer and homodimer TFF3 domains; reduced glutathione 10 equivalents, 100 μM, pH 7; ref [22]; cited from earlier work
Description: as §1

[3] = Reductive stability of disulfide bonds: TCEP reduction, IAM alkylation, LC-MS; type: physicochemical; settings: chemical stability to reduction, 30 min, room temperature (25 °C), then IAM 100 eq/Cys 5 min, TFA quench; for Reduction and alkylation of disulfide bonds with 5 equivalents of TCEP: peptide 150 μM in 100 mM tris.HCl pH 7.4, 5 molar equivalents TCEP per peptide; for Reduction and alkylation of disulfide bonds with 15 equivalents of TCEP: peptide 150 μM in 100 mM tris.HCl pH 7.4, 15 molar equivalents TCEP per peptide; for Reduction and alkylation of disulfide bonds with 150 equivalents of TCEP: peptide 150 μM in 100 mM tris.HCl pH 7.4, 150 molar equivalents TCEP per peptide
Method: Peptides were purified by preparative RP-HPLC using a C5 column (Phenomenex Luna; 10 μm, 21.2 mm ID × 250 mm; flow rate 20 mL/min) on a Shimadzu LC-20A system running a linear gradient of solvents A (0.1 % TFA (aq) and B (90 % acetonitrile (aq)/0.1 % TFA). Fractions were analyzed by liquid chromatography-mass spectrometry (LC-MS), and those containing the desired peptide and >95 % purity were pooled and lyophilized. LC-MS analyses were performed on a C18 column (Agilent Eclipse Plus; […], 2.1 mm ID x 50 mm; flow rate 0.25 mL/min), using a QSTAR Elite electrospray ionization quadrupole time-of-flight (ESI QqTOF) mass spectrometer (SCIEX) linked to an upstream Shimadzu LC-20A HPLC system. HPLC solvents were the same as described previously, substituting formic acid for TFA. Peptides were separated on a gradient of 2–60 % B over 10 min and analyzed over a mass range of 200–2000 amu.
Peptides (TFF1, linaclotide, or BPTI) were dissolved to a concentration of 150 μM in 100 mM tris.HCl, pH 7.4. TCEP and IAM were prepared as separate 0.5 M solutions in 100 mM tris.HCl and the pH of all solutions were adjusted with concentrated KOH to pH 7.4. 25 μL of peptide (3.75 nmol) were treated with 0.5 M TCEP (0–150 molar equivalents per peptide). The samples were incubated at room temperature (25 °C) for 30 min, whereby they were treated with 5 μL (2.5 μmol; 100 eq/Cys) IAM for 5 min, followed by quenching with 5 μL TFA to reduce the pH to 2–3. Samples were then analyzed by LC-MS.

| Molecule | Resistance of the TFF domain to gastrointestinal proteases [1] | Persistence of disulfide bonds in the presence of reduced glutathione [2] | Reduction and alkylation of disulfide bonds with 5 equivalents of TCEP [3] | Reduction and alkylation of disulfide bonds with 15 equivalents of TCEP [3] | Reduction and alkylation of disulfide bonds with 150 equivalents of TCEP [3] |
| --- | --- | --- | --- | --- | --- |
| TFF3: trefoil factor family secretory peptide 3, with TFF domain (EEYVGLSANQCAVPAKDRVDCGYPHVTPKECNNRGCCFDSRIPGVPWCFKPLQEAECTF; ends and bridges not checked; also: three intramolecular disulfides in TFF domain, pairing not given here; UniProt Q07654 22-80, looked up) | resistance | no disulfide bond reduction or scrambling detected | – | – | – |
| bovine pancreatic trypsin inhibitor [BPTI] | – | – | complete reduction and alkylation of a single disulfide bond | no further reduction | No further reduction |
| linaclotide | – | – | partial reduction and alkylation of a single disulfide bond | fully reduced and alkylated | fully reduced and alkylated |
| TFF2: trefoil factor family secretory peptide 2 (protein, UniProt Q03403 24-129, looked up) Trefoil factor 2: EKPSPCQCSRLSPHNRTNCGFPGITSDQCFDNGCCFDSSVTGVPWCFHPLPKQESDQCVMEVSDRRNCGYPGISPEECASRKCCFSNFIFEVPWCFFPKSVEDCHY | resistance | – | – | – | – |
